Results: the supplement of paper PMC10724198
± gives the standard deviation of the averaged measurements.

Tested on: Saccharomyces cerevisiae
Experiment: protein stability index of tFT-peptide fusion (C-terminal peptide) (PSI (0-1 scale)); higher = more stable (slower turnover)
Settings: genetic background: wild type; temperature: 30 C
Experimental: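 MPS profiling in S. cerevisiae of the yeast C-terminome library: the last 12 aa of each annotated ORF are fused to the C-terminus of a sfGFP-mCherry timer, after a GGGS linker. Cells are FACS-sorted into 8 mCherry/sfGFP bins and deep-sequenced. PSI runs from 0 (unstable) to 1 (stable); wild type and das1Δ backgrounds, two technical replicates each.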

Sequence | protein stability index
KGHVHSPRHNND [YOR379C C-terminal 12 aa] | 0.713 ± 0.035
KGTCGCGESFMV [ISA1 C-terminal 12 aa] | 0.69 ± 0.045
KHIDYRHAPGNI [RRN10 C-terminal 12 aa] | 0.69587 ± 0.00057
KHKNILSFNNNT [YDR543C C-terminal 12 aa] | 0.709 ± 0.041
KHPRPFRQEHRC [YLR162W C-terminal 12 aa] | 0.6577 ± 0.0057
KHQFLTKAKRFF [FET3 C-terminal 12 aa] | 0.7186 ± 0.0014
KHVSGKILGFVY [RPS22A C-terminal 12 aa] | 0.63 ± 0.02
KIPKTYSELSCL [DUN1 C-terminal 12 aa] | 0.669 ± 0.037
KKLHEEYFGEDK [CRS1 C-terminal 12 aa] | 0.646 ± 0.032
KKMEARGQSIWV [RPN9 C-terminal 12 aa] | 0.6728 ± 0.0014
KKNGYIYFYTRC [UBP14 C-terminal 12 aa] | 0.6625 ± 0.0026
KKQKVVPLPTDI [SMM1 C-terminal 12 aa] | 0.654 ± 0.015
KKSKPRANKLTI [ECM2 C-terminal 12 aa] | 0.696 ± 0.017
KKYKFKLKFIKN [RNY1 C-terminal 12 aa] | 0.642 ± 0.02
KLDLPNVFHKKG [CHS2 C-terminal 12 aa] | 0.706 ± 0.037
KLMVEEINLDID [FZO1 C-terminal 12 aa] | 0.747 ± 0.092
KLRNSNNTRAED [AVO2 C-terminal 12 aa] | 0.672 ± 0.011
KLTSTVTLNLLY [YGR107W C-terminal 12 aa] | 0.697 ± 0.029
KLYILKHLGSKQ [RRG9 C-terminal 12 aa] | 0.685 ± 0.019
KMVLSHMKEKKD [YGL140C C-terminal 12 aa] | 0.682 ± 0.017
KNEDSEVEDDLI [CUS2 C-terminal 12 aa] | 0.67 ± 0.0098

Sequence | protein stability index
KNGKVDPLKNFK [DBP9 C-terminal 12 aa] | 0.684 ± 0.026
KNSGEKLVAVLN [YCR102C C-terminal 12 aa] | 0.666 ± 0.025
KPDVERVYKENT [FAA4 C-terminal 12 aa] | 0.665 ± 0.011
KPEFVDIINSRN [TPI1 C-terminal 12 aa] | 0.691 ± 0.026
KPLSKPAPDLDY [CWC25 C-terminal 12 aa] | 0.676 ± 0.0075
KPRKKAKALPKT [RTT109 C-terminal 12 aa] | 0.737 ± 0.014
KPRWYRIWNFWC [GAP1 C-terminal 12 aa] | 0.419 ± 0.024
KQIDVFNGPKRV [MIG2 C-terminal 12 aa] | 0.7313 ± 0.0019
KQNIPRKPNVDI [BNS1 C-terminal 12 aa] | 0.677 ± 0.018
KRDIVFAASLYL [SKI2 C-terminal 12 aa] | 0.739 ± 0.12
KRDKLKKNCVIM [YGL082W C-terminal 12 aa] | 0.698 ± 0.034
KREKTMRNSMLP [YIR036W-A C-terminal 12 aa] | 0.736 ± 0.076
KRLTSRLNKKHK [SPN1 C-terminal 12 aa] | 0.69 ± 0.046
KRSLTLPVGMKI [AIM44 C-terminal 12 aa] | 0.658 ± 0.02
KRYTVKKALAKA [RPL14A C-terminal 12 aa] | 0.627 ± 0.013
KSADPDAMDTTE [RVB2 C-terminal 12 aa] | 0.695 ± 0.021
KSAKATKASQEL [HTA1 C-terminal 12 aa] | 0.675 ± 0.045
KSEIDTLKQDQK [TYE7 C-terminal 12 aa] | 0.6659 ± 0.0018
KTATTLPGRRFV [LUC7 C-terminal 12 aa] | 0.704 ± 0.017
KVHRKKVPGCTI [YGR011W C-terminal 12 aa] | 0.686 ± 0.029
KVIFKDRPLPIM [CTF8 C-terminal 12 aa] | 0.611 ± 0.012

Sequence | protein stability index
KVYDELKKQGLV [PRP9 C-terminal 12 aa] | 0.676 ± 0.0062
KYNSQKRATTPA [COQ4 C-terminal 12 aa] | 0.6698 ± 0.0039
LAFRAHTMPNAP [ATO3 C-terminal 12 aa] | 0.694 ± 0.033
LATWDKQGNLKY [SRN2 C-terminal 12 aa] | 0.696 ± 0.026
LCLLESLDCLAK [PMT7 C-terminal 12 aa] | 0.68 ± 0.017
LCPVFFTWTNLR [YSR3 C-terminal 12 aa] | 0.656 ± 0.034
LDKEMADYFEKK [YRA1 C-terminal 12 aa] | 0.706 ± 0.035
LEDHTPPEDKPN [QCR10 C-terminal 12 aa] | 0.695 ± 0.0076
LEEFLVRGTNNQ [ATP25 C-terminal 12 aa] | 0.663 ± 0.012
LEEPYKPQRQRC [YPL088W C-terminal 12 aa] | 0.718 ± 0.0087
LFTCTDPNDTIE [MMS4 C-terminal 12 aa] | 0.72 ± 0.03
LFVTDGSLLLDL [EDC3 C-terminal 12 aa] | 0.685 ± 0.032
LGMINTVVSLDR [YBR221W-A C-terminal 12 aa] | 0.672 ± 0.04
LIAEILLARNLI [HOM2 C-terminal 12 aa] | 0.662 ± 0.007
LIGFGNQVSKAL [BUD25 C-terminal 12 aa] | 0.723 ± 0.027
LISCCCCCFRRC [YNL097W-A C-terminal 12 aa] | 0.669 ± 0.016
LKAVCPPDAGFA [YOR387C C-terminal 12 aa] | 0.7462 ± 0.0071
LKHFIKVFSSKL [ARR1 C-terminal 12 aa] | 0.89 ± 0.024
LKITDDLARKGF [TGL2 C-terminal 12 aa] | 0.666 ± 0.0096
LKKKLYTLEQKK [KEL2 C-terminal 12 aa] | 0.6241 ± 0.0031
LKLNHSFATIFK [MCM21 C-terminal 12 aa] | 0.677 ± 0.024

Sequence | protein stability index
LKQLDNLKSQLN [ARG4 C-terminal 12 aa] | 0.6755 ± 0.0019
LLNSRATQDVVC [VMA3 C-terminal 12 aa] | 0.66 ± 0.0053
LLQSGRYGGNRS [RCI37 C-terminal 12 aa] | 0.663 ± 0.021
LLSVDGWRTDQL [QRI7 C-terminal 12 aa] | 0.758 ± 0.031
LMGAALAAVIFL [FIT1 C-terminal 12 aa] | 0.668 ± 0.026
LNFYNDNFGSQF [STP1 C-terminal 12 aa] | 0.71 ± 0.048
LNKEALKHNMLK [HSH49 C-terminal 12 aa] | 0.695 ± 0.092
LNKKSSVKILLY [CMS1 C-terminal 12 aa] | 0.614 ± 0.0071
LNWLIKGILTED [HFI1 C-terminal 12 aa] | 0.675 ± 0.039
LPSERSRLSYTN [CBP3 C-terminal 12 aa] | 0.696 ± 0.071
LPSPRFFSPITL [YER158W-A C-terminal 12 aa] | 0.702 ± 0.008
LQFILPSMNLAN [GPB1 C-terminal 12 aa] | 0.656 ± 0.015
LQKFYLQVSTIS [YFR054C C-terminal 12 aa] | 0.456 ± 0.0082
LQPMEAFKYDRS [BIO2 C-terminal 12 aa] | 0.731 ± 0.046
LRASGDDSDPAY [PFA5 C-terminal 12 aa] | 0.687 ± 0.014
LRKKQVKKKVKS [SLX8 C-terminal 12 aa] | 0.716 ± 0.061
LRRFIICQLHLI [YBR027C C-terminal 12 aa] | 0.139 ± 0.0035
LRYYVSKLINFK [YNL324W C-terminal 12 aa] | 0.6889 ± 0.00073
LSDSHYELNAES [PMT5 C-terminal 12 aa] | 0.706 ± 0.044
